# B1: humanized D1.3 Fab (Fab, V domains shown)
# VH: QVQLQESGPGLVKPSETLSLTCTVSGGSVSGYGVNWIRQPPGKGLEWIGMIWGDGNTDYNSSLKSRVTISVDTSKNQFSLKLSSVTAADTAVYYCARERDYRLDYWGQGTLVTVSS
# VL: AIRMTQSPFSLSASVGDRVTITCRASGNIHNYLAWYQQKPAKAPKLFIYYTTTLADGVPSRFSGSGSGTDYTLTISSLQPEDFATYYCQHFWSTPRTFGGGTKVEIKR
# notes: also called SHuD1.3; humanized D1.3 antibody
# B2: Fab fragment comprised of mouse NGAD65 variable and constant domains (Fab, V domains shown)
# VH: QVQLQQPGAELVKPGASVKMSCKASGYRFSSYNMHWVKQTPGQGLEWIGAIYPRSGDTSYNQKFKGKATLTADKSSSTAYMQLGSLTSEDSAVYYCVRSYDYDAPFAFWGQGTLVTVSA
# VL: VLTQTPLSLPVSLGDQASISCRSSQSLEHNNGNTYLNWYLQKPGQSPQLLIYRVSNRFSGGLDRFSGSGSGTDFTLKISRVEAEDLGVYFCLQVTHVPFTFGSGTKLEIKR
# notes: also called mouse Fab; mouse NGAD65 Fab
# B3: humanized anti-human CD28 (Hu.9.3) Fab fragment (Fab, V domains shown)
# VH: EVQLVQSGGGLVQPGGSLRLSCAGSGFTFSDYGVHWVRQAPGKGLEWVSAIWAGGGTNYASSVMGRFTISRDNAKNSLYLQMNSLRAEDMAVYYCARDKGYSYYYSMDYWGQGTLVTVSS
# VL: DIVMTQSPDSLAVSLGERATINCRASESVEYYVTSLMAWYQQKPGQPPKLLIYAASNVESGVPDRFSGSGSGTNFSLTISSLQAEDVAVYYCQQSRKVPYTFGQGTKLEIKR
# notes: also called humanized 9.3
# B4: hybrid Fab fragment comprised of human constant domains, mouse 9.3 heavy chain variable domain, and humanized light chain variable domain (Fab, V domains shown)
# VH: EVKLQQSGPGLVTPSQSLSITCTVSGFSLSDYGVHWVRQSPGQGLEWLGVIWAGGGTNYNSALMSRKSISKDNSKSQVFLKMNSLQADDTAVYYCARDKGYSYYYSMDYWGQGTSVTVSS
# VL: DIVMTQSPDSLAVSLGERATINCRASESVEYYVTSLMAWYQQKPGQPPKLLIYAASNVESGVPDRFSGSGSGTNFSLTISSLQAEDVAVYYCQQSRKVPYTFGQGTKLEIKR
# Legend:
# chicken lysozyme [1] = target: T1, chicken lysozyme (chicken, UniProt P00698 19-147); assay: intrinsic tryptophan fluorescence quench titration, 200 nM Fab titrated with lysozyme in solution
# T1 construct: also called chicken lysozyme antigen
# chicken lysozyme [2] = target: T1, chicken lysozyme; assay: fluorescence quench titration; reference is the literature Kd of D1.3 IgG (4 nM)
# chicken lysozyme [3] = target: T1, chicken lysozyme; assay: fluorescence quench titration (FIG. 7 legend); FIG. 7 legend, bound only
# [4] = target: T2, human glutamic acid decarboxylase 65 kilodalton isoform (human, UniProt Q05329 1-585); assay: immunoprecipitation of 35S-methionine labelled GAD65 with Fab and Protein G-Sepharose; midpoint read visually
# T2 construct: also called GAD65; antigen
# CD28Ig [5] = target: T3, CD28Ig (human, UniProt P10747 19-152); assay: ELISA on CD28Ig coated plates (FIG. 11 legend)
# T3 construct: also called GD28Ig; human CD28; not shown: Ig part of CD28Ig; not described
# CD28Ig [6] = target: T3, CD28Ig; assay: ELISA, CD28Ig coated plates, detection with anti-human kappa immunoconjugate
# T1 sequence (P00698 19-147 limits assumed): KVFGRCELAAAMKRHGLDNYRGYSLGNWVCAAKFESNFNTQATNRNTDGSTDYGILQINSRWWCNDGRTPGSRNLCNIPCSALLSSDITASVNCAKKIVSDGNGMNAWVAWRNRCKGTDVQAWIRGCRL
# T2 sequence (Q05329 whole entry, canonical isoform): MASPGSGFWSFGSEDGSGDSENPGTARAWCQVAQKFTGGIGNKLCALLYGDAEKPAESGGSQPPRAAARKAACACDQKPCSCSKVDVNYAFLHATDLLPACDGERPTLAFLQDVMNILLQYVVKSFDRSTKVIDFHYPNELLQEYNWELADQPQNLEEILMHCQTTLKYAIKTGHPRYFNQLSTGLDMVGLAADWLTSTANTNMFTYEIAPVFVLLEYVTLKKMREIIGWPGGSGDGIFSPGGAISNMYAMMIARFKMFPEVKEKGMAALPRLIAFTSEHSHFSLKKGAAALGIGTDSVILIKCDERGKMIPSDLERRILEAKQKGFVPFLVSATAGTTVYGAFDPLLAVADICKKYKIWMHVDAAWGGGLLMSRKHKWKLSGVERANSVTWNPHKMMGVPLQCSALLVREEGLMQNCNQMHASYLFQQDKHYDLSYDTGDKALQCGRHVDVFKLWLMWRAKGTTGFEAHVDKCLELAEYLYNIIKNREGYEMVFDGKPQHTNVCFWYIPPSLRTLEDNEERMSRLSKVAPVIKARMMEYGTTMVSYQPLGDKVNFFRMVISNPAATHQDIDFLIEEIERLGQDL
binder,measurement,setting,value
B1,Kd,chicken lysozyme [1],23 nM
same,factor by which affinity is diminished relative to the subject mouse antibody D1.3,chicken lysozyme [2],< 6 fold
same,Ka,chicken lysozyme [3],4.3e+07 M⁻¹
B2,EC50,[4],0.00036 nM
B3,Ka,CD28Ig [5],> 1e+06 M⁻¹
same,EC50,CD28Ig [6],630 nM
B4,EC50,CD28Ig [6],30 nM

# — US6881557 (ARROWSMITH TECHNOLOGY LICENSING, dated 2005)
